This data set is described as follows: protease stability score; higher = more stable; yeast display proteolysis, trypsin and chymotrypsin.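 Further: relative to predicted unfolded state with 0 unfolded-like and 1 meaning tenfold more protease.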
The sequence “DDEKRWLEELWKDIQRADETGDEEHFLHLADPHVRFHVNGRDVHGMELVAHILLKWLNEIRIKDFRLKDMRMFENHLRVDGSIVLIVNGQEIETDMILRFEVVNGRIKDREIDIR” displayed a protease stability score of 1.37.
The result for “DEREELVTRFWKFFVEASRTGDWRKLEDRADPHVRLHIDGVDLHGREEFAEEHRRHLKKFKNVKIHYEIHDMDIQGEKVHVDYRIRLDIGDKRTENIIRMDIVKIDGKWLIQEMHVD” reads 0.89.
For “SEEFEILFRLLEELDRAFETGDFKRFMELADPHTRLDVGEFHHWGREKVLEFWRHWRVKHVRVEFKRIDYQGDKLHTDGILRHTGEINGQETHEETRTNIHLIVINGRMHALEVRII”, the protease stability score is 2.01.
The result for “SEFEHRAHEVLEIMSNALHTGDEERMQKLMDPNVRIVIGDKENIGRETFMYWVKEIRFEIEIHIHRIDVINGRIHADTRLRIIIHYNGREHRDHFDVHFDIQKVDGRWVVHRIIVD” reads 2.1; that for “SETEEAVKKVTHDLWHALLTGDEEIIRDLFDPHTKILINGVELHGMDEHKDFLDRFDHIHVHDRRIETVIVQGDKAISIGHIHVRFEYGDKHVSVHSEQRLIITKIDGKWIIRFVEIG”, 1.22.
With “SKLEEDTRRAVEHFLKNIHTGDEHELTKMLDPNVRLDFDGREYHGREEVVHYLFRIMHEFGADHSEVKHWHVQGDFMQVDTRLHVGDKFFETELYMHKINGRWYVKHIIIR” the figure was 2.13; with “DEEERLRHEALKEWLETLVTGDERIIMEQLDPDARIDINGQEIHGMELFAKFMSEMGINVFDLKRTTIQGDKLRIEGVIKFNGKTHRVHVRSTKVDGRWRNKEVRVE”, 1.43.
With “SEEEKHAHEMVRIFLHILKTGDWRTLEKLLDPDVRMSLDINGREHHQVGREEVLKAFIRFLDEWRMDDLHLHDVTIQGDKAYLETEVHITFNGQRHHTHLEIEIYVINGKIKSIRLTIR” the figure was 2.36.
Consider “SEDEELFKRAIEKLIHDLLTGNFEMLEHLLDPHTRVDFNGKIMHGREFVEDIRERFPNLKLELRIDDSSVINGRANIIGTLHFNVNGKFSTHEVHYHVNKFNGKWYIEEVRIK”, for which the protease stability score stood at 1.32.
The sequence “DSLEKHTEDSLRFFLHILRTGDEEELSDLLDPRTRYEFNGKEFHGREQVVEVLIRLAEHIRIEELHVTHVEVYGDKVNSETLLIVDVDGQKRILHTRVLATKVNGKWLFQRIRIV” registered a protease stability score of 2.17.
With “SEEEKDIKNAFRLLVKIIRTGDWEDHHKQMDPDVLIIVGDKEHHGWEEASRFMKEHLERVDHEDLKLRRVHIQGEKMELDGELFVNVDGRLIRMRVIFFLNKVNGRWVIHSLEIR” the figure was 2.28.
The result for “SEDEKQFNEFLKLFNHSLQTGDEDTLTDLMDPTVRSDINGREFHGREEMSRALNILIKLAGVDHTSIDLKRLEVVGDKAHSDVSLLLIQGDKIRTHEMKLDMYKIDGKWILTHLRFK” reads 1.66; that for “DEEEEISRRIVKLLIELFETGDEEKWKELADPDARVDIDGVDSVGRKHAIHLLHEWKEQLGFKHHRIHSIHVYGEFIDVDGLLIVNGRKIRIHFHFIVVNGRLKEQRLHIE”, 1.3; that for “SEEEDLHRHIMRLFLEWVLTGDEEDLYHFADPHTQFRYGDYELHGMEKIVEEILRFTHELRITHFTIHQMDVFNGKAESDVEWHKDVNGQEVRFRLKLILIVINGRTKSIEIRHK”, 1.23.
The result for “SEEDKIVHEMMERLLKNWQTGNWEEIEKLFDPNAKLLVDGVELHGREEMSRHWEEKLNQIDHLRIRIRDYRYFDGRLRVEGEEIHYVNGKDITREVEIRLQVINGVVESIEFHRR” reads 1.42.
“DEENKVLEHMIRLIHHDRSTGDEKVLLKLFDPHARFIYHYGDKEIHLHGRKEITDLLVKLHRHIRVDRLHIDHWEFHGDKMHIDHTTRMNVNGREMETRIDLIITIIDGVIHSIEIRQR” displayed a protease stability score of 1.19.
With “SEDEKLAEDFFELLRHLIHTGDENTLREFADPRTRVQINGREIHGWDESARHIMHETLRFKNMRINLHLKDRRVIGEKMELDVKVQLHFNGQTEEFDFILYVEKVNGKWVIKSIHVH” the figure was 1.26; with “REEEEHLKKFIEDHIRDLRTGDEQKVADQADPHVRTRFNGVDYHGREDHMKLMKHIRFEEMRIEDVKVQGDKAHIDSIITIEVDGQRETIKVHIIIVKIDGRWLLKQSHFN”, 0.396; with “DEEEQAASHLEELIFRVIETGDWRNFYKMMDPDVRLDFNGQEYHGRENVTEAWHNSFHDLGIKHIELRTKNSQGDFLHLNFIVRYNGREFNVHFNWHVIDGRMKLIDIRVEHI”, 0.585.
The result for “DDDQKEMERFVREFVHSFMTGDEENIRRLADPNARTYVNGKLRHGMDNFLHLWRQIRIDIQHVKVDDMHLVNGRIYIRVTVHGIFTFDGVHVRDEKDQHWELHVVDGRAKYISIHVH” reads 1.62.
Sequence “DDWEEEVHKFSRLFIKSVETGDEDTLHKFADPNVMLHQGDKEYHGREMFVRWSNELLRHLGVSKVRARMHDDKAYNGVVHLDLENRFNGRTVRIEVRIEKINGKWLMTEVRIE” had a protease stability score of 0.622.
With “SERDRIAKELKDILRSSRETGDERMMEELADPNVRFEINGVTIIGREEFYRWMSEWRLELEHSNDHDEREFDGQVNVDGTLVMRFTVNGQERREKVRITIHFLKVDGRWILHRIIIH” the figure was 2.03; with “SELEKHIKDYFDYIFTLLLTGDWDTLWRMADPNVRFHAEGHEIHGRELWEEFIRKFKNIKVHLHRSSLIGDYLFLDGELEINGRRIRTEIELVIVNGRLTEVSHRLR”, 0.807; with “DDDHKVAEKMNDTFLRLFLTGDFERLWELADPHVRILFNGVEFHGREQMSTVIEHHLRQMRVHDVTIEHITWQGDKLHVHSILRTRVGDKKVDDHIEVNILKVDGKWIVKEVKIL”, 2.01.
The result for “HEDEHQAEHLLEAVFHIFLTGDWRSLHELVDPNVRFDVNGRRTHGREDLIRFSRELRIHDVRFHRVKLDVYDGRVEMRIDGRIDGEINGRRTDVRSIIEIEFIKFNGQWRVESISLNFH” reads 1.44; that for “SEHDEHLQRNWERFLHHIETGDWRDHEENADPHARVHIGEFDLHGREKFSELFMRLGVKHIEIQRLIVQGDKITADTVVHYGDKRLKTNIFVTKINGRWQLHSIEMR”, 1.42.
With “DERDREVHLASELLHRIVRTGNEEVFEDYLDPNVRVRVNGVESWGMDSFKHWLKEIRIHSHEVDHFDVIGDKLHFDTRVDGEFDGRRDIYKSEVHAEKINGRWIFKIVIFR” the figure was 1.19; with “SEEDEADHELVQWMLEILQTGDEETFRTFADPSTRHISHIDGKEMHIHGRESASEVLLTTWKELGVDVFHLHQYRYFNGRVDIEFELHQGNKTIELHFHYQIINGRLKRIEIRVHHE”, 1.14; with “SEEEHWVREFEEAVRHDAETGDENSISEFLDPNVRVDINGKELHGRELMDEMIRHFLERYDHIRIHIHDNRLIDGRVEMDIRLYFIQGEKHMEIDSERFIFKVDGKWRLEEVRIK”, 0.3.
In turn, “THEEEQARRALKHLIELEKTGDEEKWSHLADPNVRMEINGRQVHGRETIRKIYHEWRRKLGVNHIHHIEIKHIDIQGEKLRVEMHVNSQYGDKTLLIETEIELDKIDGKWIITMHYER” returned a protease stability score of 1.15.
The result for “DEDEEMSERLSRIIVKALRTGNEHVLRRLVDPDVLSSIDGRKHHGWEDWHEFLKRLGHENVDVQLEHLRFQGNKIELDMILRVGDKTHTQHIHILKVDGRWTMHEVRIK” reads 1.42; that for “SEDEELVHHIIKLWLESLVTGDERVFEELADPNVLLVVGEKTHHGRELYSEMFEILVTEIRFHEVHIRHYRHQGDKVKLDLRIDGEIDGQKTHDKAHIILHKIDGRWQLRSMIIH”, 1.33; that for “DEKEHFAKWFIHVLIRHWYTGDEETTHRLADPNARYEIGDKELIGMDELFRHLEQLRVDSIDYRVEDIRFQGEKIHIHGKIRVEGVVNGQHFHLTFDLILHVEKINGRWHFREMQTR”, 1.25.
Take “SEEEEKTRRILEELFELFLTGDEQRTLELFDPNMRFHLHYGDKELHLHGREEVAKFLHDHRHRVKNVKFHLKKEEVQGDKAILYIRVEIDGQEVYLNIEIHVIDGKLHEVVERIHEV”: the protease stability score came to 2.25.
